{
  "source": "paper PMC11238091",
  "key": {"[1]": {"molecular_target": "S1-STMND1 (human STMND1 lacking the first seven amino acids, amino acids 8-276), His6-tagged (human) (UniProt H3BQB6)", "test": "BLI"}, "[2]": {"molecular_target": "STMND1-SLD (stathmin-like domain of human STMND1, amino acids 118-276), His6-tagged (human) (UniProt H3BQB6)", "test": "BLI"}},
  "data": [
    {"substance": "Bovine brain tubulin (αβ-tubulin heterodimer) (from UniProt Q6B856 1-445) (complex)", "values": [
      {"measurement": "Kd", "setting": "[1]", "result": 400, "unit": "nM"},
      {"measurement": "Kd", "setting": "[2]", "result": 600, "unit": "nM"}
    ]}
  ]
}
